Experimental data: the supplement of paper PMC9732359
± gives the uncertainty stated by the source.

Assay: protein stability index of a GFP-peptide fusion (yeast GPS) (PSI 1-4); higher = more stable; sorted into four equal gates, so the index is relative within each strain
Procedure, shortened: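 Tiled yeast protein peptides of 17 residues were each joined downstream of GFP, on plasmids that also express Cherry. The pooled library was maintained in yeast, and mid-log cultures in leucine-free medium were sorted into four equal gates on the GFP/Cherry ratio. Plasmids from every gate were amplified by PCR and sequenced on Illumina, with barcodes linking reads to strains. The protein stability index of a peptide is its gate-number-weighted read frequency summed over the gates.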

Sequence	protein stability index (doa10∆)	protein stability index (pdr5∆)	protein stability index (san1∆)	protein stability index (ubr1∆)
DDYILSGESVMDRDSES [SRB4]	3.45 ± 0.19	3.6 ± 0.12	3.34 ± 0.15	3.21 ± 0.13
DEEASYKLGKVKKVQLG [RPS4A]	2.96 ± 0.1	3.1 ± 0.069	2.9 ± 0.063	2.98 ± 0.061
DEEELGQRTAYHSKRDA [RPB2]	3.4 ± 0.1	2.9 ± 0.14	3.31 ± 0.09	3.04 ± 0.098
DEEESNDEKQKAQDVDV [RPN13]	3.33 ± 0.12	3.42 ± 0.077	3.34 ± 0.044	3.32 ± 0.049
DEEIIQLHFSLLDEEAE [RPO21]	2.86 ± 0.078	3.01 ± 0.09	2.89 ± 0.083	2.83 ± 0.23
DEFPSELSDSDRQIINE [SIR4]	3.53 ± 0.27	3.24 ± 0.16		2.89 ± 0.15
DEGKEIPATIFDKVIYH [TAF14]	3.13 ± 0.077	3.14 ± 0.059	3.15 ± 0.041	3.02 ± 0.056
DEIHIPAPSKPVIDYEL [BRR2]	3.19 ± 0.073	3.08 ± 0.077	2.88 ± 0.059	2.78 ± 0.061
DEKDYLTNQQPKNLSTP [CSE2]	3.04 ± 0.083	2.87 ± 0.081	3.21 ± 0.059	3.27 ± 0.069
DELDQEILNLSTQELQT [RPT5]	3.21 ± 0.084	3.15 ± 0.09	3.14 ± 0.06	3.13 ± 0.078
DELRKQELISKAFTNWN [ISW2]	2.04 ± 0.065	2.45 ± 0.078	2.4 ± 0.089	2.23 ± 0.067
DENDSKKNNAASELANP [YAR002W/NUP60]	2.97 ± 0.078	2.99 ± 0.052	3.05 ± 0.047	2.97 ± 0.047
DENKDDELVKLLLDNGF [SRP68]	3.05 ± 0.11	3.4 ± 0.086	3.36 ± 0.12	3.31 ± 0.094
DEPMTTFYKCVNCGHRW [RPC11]	2.84 ± 0.16	2.5 ± 0.082	2.17 ± 0.15	2.82 ± 0.086
DEQQREDNNDAVNSIMA [ECM29]	3.16 ± 0.1	3.56 ± 0.11	3.07 ± 0.1	3.31 ± 0.074
DESLKDEATVPNTRDAE [SWI3]	3.16 ± 0.074	3.31 ± 0.082	3.19 ± 0.13	3.14 ± 0.077
DESNDIDMIADENGTNS [RPC37]	2.44 ± 0.1	2.43 ± 0.07	2.88 ± 0.11	3.12 ± 0.1
DEVTIRRTVGLKKDDYQ [SMC3]	2.66 ± 0.12	2.53 ± 0.099	2.32 ± 0.13	2.35 ± 0.071
DFDGDEMNLHVPQTEEA [RPO31]	3.03 ± 0.071	3.31 ± 0.068	2.99 ± 0.063	3.18 ± 0.051
DFDLFKEVLPDLQNLNL [YJL039C/NUP192]	3.44 ± 0.095	3.17 ± 0.11	3.19 ± 0.07	3.4 ± 0.16
DFIQNVGRLWDQTFPIN [ECM29]	3.13 ± 0.062	3.35 ± 0.057	3.31 ± 0.043	3.31 ± 0.045
DFKPPYIYSHVNKVPQN [SWP82]	2.16 ± 0.12	2.14 ± 0.11	2.79 ± 0.14	2.62 ± 0.054
DFLRKATAFNKTRGPFH [RPL16A]	2.19 ± 0.16	2.96 ± 0.2	3.04 ± 0.086	3.03 ± 0.12
DFVRKGGLQKGKLVVSQ [SIR3]	3.14 ± 0.079	3.22 ± 0.091	2.75 ± 0.055	3.35 ± 0.077
DGAYALSASWDKTLRLW [ASC1]	3.28 ± 0.064	3.28 ± 0.057	3.18 ± 0.093	3.26 ± 0.036
DGDASKPAFSFGAKSDE [YJL041W/NSP1]	3.32 ± 0.064	3.26 ± 0.053	3.15 ± 0.037	3.43 ± 0.044
DGFDPRGNIKVMFATNR [RPT1]	3.25 ± 0.17	3.48 ± 0.16	3.26 ± 0.091	3.24 ± 0.14

Sequence	protein stability index (doa10∆)	protein stability index (pdr5∆)	protein stability index (san1∆)	protein stability index (ubr1∆)
DGFNKTFHDELNLKFKE [YML103C/NUP188]	2.41 ± 0.066	2.38 ± 0.072	2.69 ± 0.087	2.65 ± 0.054
DGKGAVYSFDPVGSYER [PRE7]	3.31 ± 0.18	2.57 ± 0.12	2.94 ± 0.15	3.27 ± 0.081
DGLLEYLEDIIGTANYK [SMC4]	2.38 ± 0.072	2.53 ± 0.055	2.6 ± 0.078	2.36 ± 0.054
DGRVNRFYELEESLTVL [YJR042W/NUP85]	2.28 ± 0.12	2.21 ± 0.13		1.99 ± 0.1
DGSAIEDDDIRSRMLPT [SNF5]	3.19 ± 0.086	3.03 ± 0.11	3.46 ± 0.12	3.34 ± 0.057
DHEFVLISLIMTTWRKL [YMR129W/POM152]	1.3 ± 0.12	1.09 ± 0.075	1.1 ± 0.14	1.26 ± 0.07
DHIAIDWEDEEKYEDED [DSN1]	2.52 ± 0.15	2.86 ± 0.12	2.55 ± 0.09	2.12 ± 0.08
DHINWEHIKQDYVASLN [NSL1]	3.12 ± 0.069	3.23 ± 0.069	2.72 ± 0.058	2.9 ± 0.056
DHLVSSIPMGGQSINDS [ARP9]	2.78 ± 0.11	2.89 ± 0.093	3.08 ± 0.068	3.13 ± 0.1
DHTVDEIDHVEYYVMMD [SRB8]	3.01 ± 0.083	2.63 ± 0.062	2.96 ± 0.081	3.02 ± 0.047
DHVDGSSEFVSQDTKVI [RRP46]	2.64 ± 0.056	2.24 ± 0.053	2.44 ± 0.053	2.8 ± 0.053
DHYESNQLVAKLLLLRI [SRB8]	2.84 ± 0.065	2.74 ± 0.085	2.84 ± 0.1	2.34 ± 0.038
DIDGIMDNPRKLSKILR [SNU114]	3.01 ± 0.074	2.96 ± 0.084	2.94 ± 0.058	2.96 ± 0.067
DIFITPTPVVTISEKEQ [SSN2]	1.76 ± 0.079	1.95 ± 0.077	1.48 ± 0.12	1.67 ± 0.069
DIIWLQRDLGLYVVGLF [RRP6]	2.27 ± 0.062	2.22 ± 0.099	1.4 ± 0.1	2.29 ± 0.12
DIKAPSTFENRNVGKTL [RPS1A]	2.95 ± 0.074	2.72 ± 0.06	3 ± 0.052	3.1 ± 0.057
DIKVLKRQLIKERNQKF [YIL149C/MLP2]	2.7 ± 0.084	2.62 ± 0.084	2.5 ± 0.091	2.41 ± 0.039
DILAKLFSLEKPNLNYF [SWI1]	2.02 ± 0.056	1.96 ± 0.05	1.96 ± 0.063	2.08 ± 0.044
DILSKLYLLLARVFEIW [SNF11]	2.15 ± 0.044	2.36 ± 0.053	2.19 ± 0.07	2.39 ± 0.041
DIPTIADEHFWADNYER [BRN1]	3.14 ± 0.2	3.18 ± 0.1	3.34 ± 0.069	3.22 ± 0.04
DIRKFLDGIYVSHKGFI [RPL9A]	1.39 ± 0.1	2.08 ± 0.077	1.77 ± 0.16	3.23 ± 0.1
DKKASMIISGSRDKTIK [ASC1]	2.2 ± 0.17	2.54 ± 0.092	2.63 ± 0.096	1.96 ± 0.079
DKLLDPTTVSYIFCISR [SCL1]	2.97 ± 0.045	3.1 ± 0.06	3.181 ± 0.029	3.22 ± 0.051
DKLSVSEISDGKLKRCS [SIN4]	3.27 ± 0.15	3.38 ± 0.13	3.15 ± 0.1	3.6 ± 0.11
DKSLDSSNASFNNQGKL [MED1]	2.98 ± 0.045	3.07 ± 0.043	2.68 ± 0.035	2.99 ± 0.045
DKYHEQWIKFLLHTLYL [SSN8]	2.62 ± 0.1	2.2 ± 0.076	1.93 ± 0.13	2.43 ± 0.052
DLDETTQTFNGSIFTHE [YML031W/NDC1]	2.96 ± 0.05	2.85 ± 0.037	2.85 ± 0.038	2.92 ± 0.033
